Experimental data published in publication PMC6155051, “Structures of insect Imp-L2 suggest an alternative strategy for regulating the bioavailability of insulin-like hormones” (Nature Communications, 2018).

What was measured:
[1] = biological target: Drosophila imaginal morphogenesis protein-late 2 protein (Imp-L2) (Drosophila melanogaster) (UniProt Q09024); test: ITC; Imp-L2 (12.8-22.6 uM) in the cell, hormone about tenfold greater injected; 50 mM Tris, 150 mM NaCl, pH 7.4; 25 C; hormone concentrations adjusted to a 1:1 stoichiometry
[2] = biological target: the molecule itself; test: SEC-MALS; ligand-free Imp-L2, 1 mg/mL, 50 mM Tris pH 7.4, 50 mM NaCl; Superdex S200 10/300
[3] = biological target: T1, Drosophila imaginal morphogenesis protein-late 2 protein (Imp-L2) (Drosophila melanogaster, UniProt Q09024 26-267); test: ITC; 300 mM NaCl (legend says 400 mM)
T1 chain: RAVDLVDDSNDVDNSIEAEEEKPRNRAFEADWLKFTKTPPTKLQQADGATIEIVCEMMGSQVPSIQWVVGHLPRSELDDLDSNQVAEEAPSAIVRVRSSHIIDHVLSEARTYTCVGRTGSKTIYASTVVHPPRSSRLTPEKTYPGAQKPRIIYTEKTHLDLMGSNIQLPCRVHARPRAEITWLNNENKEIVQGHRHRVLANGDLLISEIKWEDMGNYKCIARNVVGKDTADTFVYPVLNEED

[4] = biological target: Drosophila imaginal morphogenesis protein-late 2 protein (Imp-L2) (Drosophila melanogaster) (UniProt Q09024); test: ITC; DILP5:Imp-L2 binding as a function of salt: 300 mM NaCl
[5] = biological target: Drosophila imaginal morphogenesis protein-late 2 protein (Imp-L2) (Drosophila melanogaster) (UniProt Q09024); test: as above; remark: listed apart in the source

Molecule: Insulin X14 (ProB28Asp), fully monomeric mutant of human insulin (ligand)
- Kd [1]: 135000 pM

B1: Drosophila imaginal morphogenesis protein-late 2 protein (Imp-L2) (natural protein, Drosophila melanogaster, UniProt Q09024 26-267, looked up)
chain: T1 chain
notes: signal peptide in the construct: full-length Drosophila Imp-L2 with the native signal peptide, secreted into the medium; After 3C cleavage, residues of the protease site should remain at the C-terminus (surmised); A selenomethionine-labelled form was also made; the apo structure was solved by MAD; also called Dm Imp-L2; apo-Imp-L2; source: baculovirus-infected Sf9 cells, purified from conditioned …
- stoichiometry N [2]: 2

B2: Drosophila insulin-like peptide 5, C4 variant (B2-B29) (ligand)
chain 1: NSLRACGPALMDMLRVACPNGFNSMFAK
chain 2: DFRGVVDSCCRNSCSFSTLRAYCDS
- Kd [3]: 5.4 pM
- Kd [1]: 8000 pM
- Kd [4]: 5 pM
- Kd [5]: 1 pM
